Source: article PMC11208740, “Structure of the human systemic RNAi defective transmembrane protein 1 (hSIDT1) reveals the conformational flexibility of its lipid binding domain” (Life Science Alliance, 2024)

Biological target: the molecule itself
Test: SEC; purified hSIDT1-GFP on Superose 6 Increase 10/300 GL at 0.5 ml/min, intrinsic tryptophan fluorescence; column in 0.15 mM LMNG, 25 mM Tris-HCl pH 7.5, 200 mM NaCl; molecular weight read from a standard plot

B1: full-length human systemic RNAi defective transmembrane family member 1 (hSIDT1), C-terminal GFP-Strep-tag-II fusion (natural protein, UniProt Q9NXL6 20-827, looked up)
chain: ASPGHPAKSPRQPPAPRRDPFDAARGADFDHVYSGVVNLSTENIYSFNYTSQPDQVTAVRVYVNSSSENLNYPVLVVVRQQKEVLSWQVPLLFQGLYQRSYNYQEVSRTLCPSEATNETGPLQQLIFVDVASMAPLGAQYKLLVTKLKHFQLRTNVAFHFTASPSQPQYFLYKFPKDVDSVIIKVVSEMAYPCSVVSVQNIMCPVYDLDHNVEFNGVYQSMTKKAAITLQKKDFPGEQFFVVFVIKPEDYACGGSFFIQEKENQTWNLQRKKNLEVTIVPSIKESVYVKSSLFSVFIFLSFYLGCLLVGFVHYLRFQRKSIDGSFGSNDGSGNMVASHPIAASTPEGSNYGTIDESSSSPGRQMSSSDGGPPGQSDTDSSVEESDFDTMPDIESDKNIIRTKMFLYLSDLSRKDRRIVSKKYKIYFWNIITIAVFYALPVIQLVITYQTVVNVTGNQDICYYNFLCAHPLGVLSAFNNILSNLGHVLLGFLFLLIVLRRDILHRRALEAKDIFAVEYGIPKHFGLFYAMGIALMMEGVLSACYHVCPNYSNFQFDTSFMYMIAGLCMLKLYQTRHPDINASAYSAYASFAVVIMVTVLGVVFGKNDVWFWVIFSAIHVLASLALSTQIYYMGRFKIDLGIFRRAAMVFYTDCIQQCSRPLYMDRMVLLVVGNLVNWSFALFGLIYRPRDFASYMLGIFICNLLLYLAFYIIMKLRSSEKVLPVPLFCIVATAVMWAAALYFFFQNLSSWEGTPAESREKNRECILLDFFDDHDIWHFLSATALFFSFLVLLTLDDDLDVVRRDQIPVF
notes: human systemic RNAi defective transmembrane family member 1 (hSIDT1), full length, codon-optimized gene synthesized by GenScript, cloned into pEG BacMam; Made in cells that lack N-acetylglucosaminyltransferase I, so the protein lacks complex N-glycosylation (predicted sites N57, N67, N83, N136, N282); No cleavage of GFP-Strep-tag-II is described; Not modelled in the structure: the first 40 …
stoichiometry N: 2
